The source of these data is US20230248800A1.

For the test, the target named is human V1a receptor (human) (UniProt P37288). Nature of the test: cell-based or functional assay.
human V1a receptor (human), sequence (P37288 whole entry): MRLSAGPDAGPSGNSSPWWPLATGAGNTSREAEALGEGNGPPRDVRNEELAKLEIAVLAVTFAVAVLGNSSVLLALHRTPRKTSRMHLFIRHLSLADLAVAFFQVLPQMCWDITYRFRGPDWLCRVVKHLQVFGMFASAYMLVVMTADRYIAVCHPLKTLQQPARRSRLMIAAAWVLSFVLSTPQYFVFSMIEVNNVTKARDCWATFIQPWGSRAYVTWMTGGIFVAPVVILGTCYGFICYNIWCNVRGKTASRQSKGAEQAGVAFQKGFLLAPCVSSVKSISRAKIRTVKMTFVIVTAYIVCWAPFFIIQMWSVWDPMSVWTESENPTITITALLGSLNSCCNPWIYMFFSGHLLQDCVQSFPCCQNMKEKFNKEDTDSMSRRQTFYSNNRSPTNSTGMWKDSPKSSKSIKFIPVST

B1: Mpa-Tyr-Phe-Hgn-Asn-Cys-Pro-Lys(X)a-Gly-NH2; (X)a = (Gly)8 [SEQ ID NO. 15] (peptide)
peptide: XFXNCPXG
modifications: Mpa at position 1, disulfide bond between Mpa and Cys; Hgn at position 4; (Gly)8 on the side chain of Lys 8; C-terminal amide
For B1, the Estimated V1a EC50 (calcium flux) is 226 nM and the V1a Highest agonist effect (% of AVP) is 24.8 % of AVP.

B2: Mpa-Tyr-Phe-Hgn-Asn-Cys-Pro-Lys(X)a-Gly-NH2; (X)a = (Gly)2 [SEQ ID NO. 9] (peptide)
peptide: XFXNCPXG
modifications: Mpa at position 1, disulfide bond between Mpa and Cys; Hgn at position 4; (Gly)2 on the side chain of Lys 8; C-terminal amide
With B2, the Estimated V1a EC50 (calcium flux) was 38.2 nM and the V1a Highest agonist effect (% of AVP) is 37 % of AVP.

B3: Mpa-Tyr-Phe-Hgn-Asn-Cys-Pro-Lys(X)a-Gly-NH2; (X)a = (Gly)6 [SEQ ID NO. 13] (peptide)
peptide: XFXNCPXG
modifications: Mpa at position 1, disulfide bond between Mpa and Cys; Hgn at position 4; (Gly)6 on the side chain of Lys 8; C-terminal amide
With B3, the Estimated V1a EC50 (calcium flux) is 45.9 nM and the V1a Highest agonist effect (% of AVP) was 28.2 % of AVP.

B4: Mpa-Tyr-Phe-Hgn-Asn-Cys-Pro-Lys(X)-Gly-NH2; X = Gly [SEQ ID NO. 8] (peptide)
peptide: XFXNCPXG
modifications: Mpa at position 1, disulfide bond between Mpa and Cys; Hgn at position 4; Gly on the side chain of Lys 8; C-terminal amide
With B4, the Estimated V1a EC50 (calcium flux) is 25.3 nM and the V1a Highest agonist effect (% of AVP) is 40.3 % of AVP.

B5: Mpa-Tyr-Phe-Hgn-Asn-Cys-Pro-Lys(X)a-Gly-NH2; (X)a = (Gly)4 [SEQ ID NO. 11] (peptide)
peptide: XFXNCPXG
modifications: Mpa at position 1, disulfide bond between Mpa and Cys; Hgn at position 4; (Gly)4 on the side chain of Lys 8; C-terminal amide
For the molecule B5, the Estimated V1a EC50 (calcium flux) is 161 nM and the V1a Highest agonist effect (% of AVP) is 33.6 % of AVP.

B6: Mpa-Tyr-Phe-Hgn-Asn-Cys-Pro-Lys(X)a-Gly-NH2; (X)a = (Gly)9 [SEQ ID NO. 16] (peptide)
peptide: XFXNCPXG
modifications: Mpa at position 1, disulfide bond between Mpa and Cys; Hgn at position 4; (Gly)9 on the side chain of Lys 8; C-terminal amide
For B6, the Estimated V1a EC50 (calcium flux) is 105 nM and the V1a Highest agonist effect (% of AVP) was 28.1 % of AVP.

B7: Mpa-Tyr-Phe-Hgn-Asn-Cys-Pro-Lys(X)a-Gly-NH2; (X)a = (Gly)5 [SEQ ID NO. 12] (peptide)
peptide: XFXNCPXG
modifications: Mpa at position 1, disulfide bond between Mpa and Cys; Hgn at position 4; (Gly)5 on the side chain of Lys 8; C-terminal amide
As for B7, the Estimated V1a EC50 (calcium flux) was 50.1 nM and the V1a Highest agonist effect (% of AVP) is 29.6 % of AVP.

B8: Mpa-Tyr-Phe-Hgn-Asn-Cys-Pro-Lys(X)a-Gly-NH2; (X)a = (Gly)3 [SEQ ID NO. 10] (peptide)
peptide: XFXNCPXG
modifications: Mpa at position 1, disulfide bond between Mpa and Cys; Hgn at position 4; (Gly)3 on the side chain of Lys 8; C-terminal amide
Consider B8, for which the Estimated V1a EC50 (calcium flux) was 53.5 nM and the V1a Highest agonist effect (% of AVP) was 32.9 % of AVP.

B9: Mpa-Tyr-Phe-Hgn-Asn-Cys-Pro-Lys(X)a-Gly-NH2; (X)a = (Gly)7 [SEQ ID NO. 14] (peptide)
peptide: XFXNCPXG
modifications: Mpa at position 1, disulfide bond between Mpa and Cys; Hgn at position 4; (Gly)7 on the side chain of Lys 8; C-terminal amide
Take B9: the Estimated V1a EC50 (calcium flux) was 30.9 nM and the V1a Highest agonist effect (% of AVP) was 26.1 % of AVP.
